Source: patent publication US20090074762A1 (PDL BIOPHARMA, published 2009)
Substitutions are numbered along the chain they refer to.

T1: mouse TweakR (mouse, UniProt Q9CR75 28-80, limits assumed)
T1 construct: also called mouse TweakR protein
T1 sequence (looked up): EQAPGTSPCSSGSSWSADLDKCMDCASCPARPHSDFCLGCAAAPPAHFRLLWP

T2: TweakR on cells (TweakR-expressing cells, TweakR transfectant cell line, A375 melanoma cells, tumor tissue) (human, UniProt Q9NP84 28-129)
T2 sequence: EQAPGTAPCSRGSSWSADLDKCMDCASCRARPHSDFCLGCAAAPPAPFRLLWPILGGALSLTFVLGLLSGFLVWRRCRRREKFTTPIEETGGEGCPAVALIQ

T3: soluble form of the extracellular domain of human TweakR (human, UniProt Q9NP84 28-80)
T3 construct: also called soluble TweakR extracellular domain
T3 sequence: T1 sequence (looked up) with S7A, S11R, P29R, H47P

B1: murine anti-TweakR antibody 18.3.3 (antibody, V domains shown)
VH: EVKLGESGGGLVQPGGSMKLSCVASGFPFTKYWMNWVRQSPEKGLEWVAEIRLKSDNYATHYAESAKGRFTISRDDSRSSVYLQMNNLRAEDTAIYYCSPTYADTMDYWGQGTSVTVSS
VL: DIVLTQSPASLAVSLGQRATISCKASQSVSTSTYSYMQWYQQRPGQSPKLLIKYASKLDSGVPARFSGSGSGTDFTLNIHPVEEEDTATYYCQHSWELPYTFGGGTRLEIKR
notes: Mouse monoclonal antibody
B2: humanized anti-TweakR antibody PDL192 (antibody, human IgG1, V domains shown)
VH: EVQLVESGGGLVQPGGSLRLSCAASGFTFSSYWMSWVRQAPGKGLEWVAEIRLKSDNYATHYAESVKGRFTISRDDSKNSLYLQMNSLRAEDTAVYYCTGYYADAMDYWGQGTLVTVSS
VL: DIQMTQSPSSLSASVGDRVTITCRASQSVSTSSYSYMHWYQQKPGKAPKLLIKYASNLESGVPSRFSGSGSGTDFTLTISSLQPEDFATYYCQHSWEIPYTFGGGTKVEIK
B3: murine anti-TweakR antibody ITEM-1 (antibody, V domains shown)
VH: EVKLEESGGGLVQPGGSMKLSCVASGFSFSNYWMNWVRQSPEKGLEWVAEIRLKSNNYATHYAESVKGRFTISRHDSKSSVYLQMNNLRAEDTGIYYCTRAYADYFDYWGQGTTLTVSS
VL: B1 VL with A12V, K24R, Q38H, R43K, S47P, L50I, K57N, D59E, L98I, R107K
B4: murine anti-TweakR antibody 136.1 (antibody, V domains shown)
VH: EVKLEESGGGLVQPGGSMKLSCVASGFTFNNYWMSWVRQSPEKGLEWLAEIRLKSDNYATHYAESVKGKFTISRDDSKSRLYLQMNNLRAENTGIYYCTGGFADYFDYWGQGTTLTVSS
VL: B1 VL with A12T, K24R, T33S, S47P, S56T, K57N, T87A, L98I, R107K
notes: Mouse monoclonal antibody
B5: murine anti-TweakR antibody ITEM-3 (antibody, V domains shown)
VH: EVKLEESGGGLVQPGGSMKLSCVVSGLTFSRYWMSWVRQSPEKGLEWVAEIRVKSDNYATTHYAESVKGKFTVSRDDSKSRLYLQMSSLRPEDTGIYYCIGYYADAMDYWGQGTSVTVSS
VL: B1 VL with A12V, K24R, T33S, Q38H, R43K, S47P, L98I, Y100W, R107K, L108M
B6: humanized anti-TweakR antibody PDL400 (antibody, V domains shown)
VH: QVQLVQSGAEVKKPGASVKISCKVSGYTFTDFIIAWVKQAPGKGLEWIGEIYPGTGRTYYSEKFRGKATLTADKSTSTAYMELSSLRSEDTAVYYCARRTIYYDYDGDYWGQGTTVTVSS
VL: DIVMTQSPLSLPVTPGEPASISCRSSKSLLHSNGITYLYWYLQKPGQSPQLLIYQMSNLASGVPDRFSSSGSGTDFTLKISRVEAEDVGVYYCAHNLELPWTFGGGTKVEIK
notes: constant regions not expressly stated
B7: murine anti-TweakR antibody 19.2.1 (antibody, mouse IgG2a, V domains shown)
VH: EVKLEESGGGLVQPGGSMKLSCVASGFTFSSYWMSWVRQSPEKGLEWVAEIRLKSDNYATHYAESVKGKFTISRDDSKSRLYLQMNSLRAEDTGIYYCTGYYADAMDYWGQGTSVTVSS
VL: DIVLTQSPASLAVSLGQRATISCRASQSVSTSSYSYMHWYQQKPGQPPKLLIKYASNLESGVPARFSGSGSGTDFTLNIHPVEEEDTATYYCQHSWEIPYTFGGGTKLEIK

These binders were tested against T1, mouse TweakR (assay: binding assay read as OD650, single bar per antibody and target; format and antibody concentration not given).

B1: binds.

The binders below were run against human TweakR (R56P) (human, UniProt Q9NP84 28-80, limits assumed) in the same assay as above.

B1: binds.

What follows are binders tested against T2, TweakR on cells (TweakR-expressing …) (assay: cell-based or functional assay).

In order of falling “agonist activity (IL-8 release assay)” value:
1. B4  ~278%
2. B7  ~39%
3. B5  ~37%
4. B2  ~25%
5. B3  ~25%
6. B1  ~14%
7. B6  ~8%

These binders were tested against T3, soluble form of the extracellular … (assay: Biacore; antibody captured by immobilized anti-Fc, soluble TweakR extracellular domain injected).
Procedure: The relative binding affinities of various mouse and humanized anti-TweakR antibodies were assessed in a Biacore assay using a soluble form of the extracellular domain of human TweakR. Briefly, goat anti-mouse Fc antibody or goat anti-human Fc was first immobilized to the biosensor surface followed by capture of antibody on the test surface. Subsequently, the soluble form of the extracellular domain of human TweakR was injected to measure binding to, and dissociation from, antibody.

In order of rising Kd:
1. B1  230 pM
2. B6  580 pM
3. B4  680 pM
4. B7  7120 pM
